Reference: US20240141039A1 (AGENUS, published 2024)

T1: full-length isoform 2 ECD of cynomolgus monkey CD96 (His-tagged) (cynomolgus monkey)
T1 construct: also called His-tagged isoform 2 of cynomolgus monkey CD96; cyno CD96 extracellular domain isoform 2
T1 chain: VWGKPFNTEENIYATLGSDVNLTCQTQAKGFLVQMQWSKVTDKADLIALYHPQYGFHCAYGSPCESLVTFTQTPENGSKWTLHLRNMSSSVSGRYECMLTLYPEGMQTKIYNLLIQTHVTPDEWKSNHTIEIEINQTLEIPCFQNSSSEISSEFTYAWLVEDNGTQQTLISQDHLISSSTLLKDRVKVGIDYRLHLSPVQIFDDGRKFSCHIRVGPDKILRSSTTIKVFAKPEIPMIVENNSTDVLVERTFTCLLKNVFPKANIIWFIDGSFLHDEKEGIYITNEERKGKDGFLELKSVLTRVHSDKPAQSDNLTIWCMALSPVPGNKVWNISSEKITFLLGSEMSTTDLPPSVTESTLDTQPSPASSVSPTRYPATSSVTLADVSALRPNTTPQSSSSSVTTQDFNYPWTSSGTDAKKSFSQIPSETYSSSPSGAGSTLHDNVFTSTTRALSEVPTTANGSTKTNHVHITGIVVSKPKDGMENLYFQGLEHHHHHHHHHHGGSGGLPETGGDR

T2: wild type full-length cynomolgus monkey CD96 isoform 2 expressed on CHO cells (cynomolgus monkey, UniProt A0A2K5TWV6 22-569)
T2 construct: whole, on cells; also called cynomolgus CD96-CHO cells; cynomolgus CD96-CHO (isoform 2)
T2 sequence: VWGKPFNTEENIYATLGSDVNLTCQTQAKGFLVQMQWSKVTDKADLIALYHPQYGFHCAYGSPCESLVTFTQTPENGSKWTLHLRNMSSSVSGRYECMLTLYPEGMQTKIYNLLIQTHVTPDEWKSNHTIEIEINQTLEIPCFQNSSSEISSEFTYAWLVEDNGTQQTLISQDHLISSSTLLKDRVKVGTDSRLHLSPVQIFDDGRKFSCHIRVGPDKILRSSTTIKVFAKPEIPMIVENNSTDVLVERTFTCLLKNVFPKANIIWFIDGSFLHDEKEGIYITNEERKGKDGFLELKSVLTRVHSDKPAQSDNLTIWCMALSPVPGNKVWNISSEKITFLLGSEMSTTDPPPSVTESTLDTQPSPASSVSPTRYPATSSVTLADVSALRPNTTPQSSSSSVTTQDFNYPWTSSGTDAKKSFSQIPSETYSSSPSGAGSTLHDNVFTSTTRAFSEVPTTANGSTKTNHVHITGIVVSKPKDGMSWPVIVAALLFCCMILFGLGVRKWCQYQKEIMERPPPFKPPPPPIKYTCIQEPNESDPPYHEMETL

T3: wild type full-length human TIGIT expressed on cells (human, UniProt Q495A1 22-244)
T3 construct: whole, on cells; also called human TIGIT-CHO; human TIGIT CHO cells
T3 sequence (looked up): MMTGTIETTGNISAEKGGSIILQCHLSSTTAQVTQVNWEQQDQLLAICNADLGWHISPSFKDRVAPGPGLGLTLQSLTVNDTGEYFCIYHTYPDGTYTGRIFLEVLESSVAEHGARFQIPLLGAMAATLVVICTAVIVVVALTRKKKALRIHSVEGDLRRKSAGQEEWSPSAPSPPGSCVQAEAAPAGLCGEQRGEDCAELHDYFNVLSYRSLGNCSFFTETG

B1: anti-TIGIT×CD96 multispecific molecule BA123 (bispecific antibody, human IgG1, kappa, lambda)
heavy 1: QVQLVQSGAEVKKPGASVKVSCKASGYTFTSYGISWVRQAPGQGLEWMGWISAYNANTNYAQKLQGRVTMTTDTSTSTAYMELRSLRSDDTAVYYCARSAGVLGGMDVWGRGTLVTVSSASTKGPSVFPLAPSSKSTSGGTAALGCLVKDYFPEPVTVSWNSGALTSGVHTFPAVLQSSGLYSLSSVVTVPSSSLGTQTYICNVNHKPSNTKVDKRVEPKSCDKTHTCPPCPAPELLGGPDVFLFPPKPKDTLMISRTPEVTCVVVDVSHEDPEVKFNWYVDGVEVHNAKTKPREEQYNSTYRVVSVLTVLHQDWLNGKEYKCKVSNKALPAPIEKTISKAKGQPREPQVYTLPPSREEMTKNQVSLSCAVKGFYPSDIAVEWESNGQPENNYKTTPPVLDSDGSFFLVSKLTVDKSRWQQGNVFSCSVMHEALHNHYTQKSLSLSPG
light 1: not shown
heavy 2: EVQLVQSGAEVKKPGSSVKVSCKASGYTFASYGISWVRQAPGQGLEWMGGITPFFNRVDVAEKFQGRVTITADKSTSTAYIELSSLRSEDTAVYYCARDLRRGGVGDAFDIWGRGTLVTVSSASTKGPSVFPLAPSSKSTSGGTAALGCLVKDYFPEPVTVSWNSGALTSGVHTFPAVLQSSGLYSLSSVVTVPSSSLGTQTYICNVNHKPSNTKVDKRVEPKSCDKTHTCPPCPAPELLGGPDVFLFPPKPKDTLMISRTPEVTCVVVDVSHEDPEVKFNWYVDGVEVHNAKTKPREEQYNSTYRVVSVLTVLHQDWLNGKEYKCKVSNKALPLPEEKTISKAKGQPREPQVYTLPPSREEMTKNQVSLWCLVKGFYPSDIAVEWESNGQPENNYKTTPPVLDSDGSFFLYSKLTVDKSRWQQGNVFSCSVMHEALHNHYTQKSLSLSPG
light 2: QSALTQPRSVSGSPGQSVTISCTGTSPDVGSHAYRSWYQQHPGKAPKLMIYEVSYRPSGVSNRFSGSKSGNTASLTISGLQAEDEADYYCSSYPPSSATVFGAGTKLTVLGQPKAAPSVTLFPPSSEELQANKATLVCLISDFYPGAVTVAWKADSSPVKAGVETTTPSKQSNNKYAASSYLSLTPEQWKSHRSYSCQVTHEGSTVEKTVAPTEC
notes: copies: 1 + 1 + 1 + 1
B2: anti-TIGIT monospecific antibody BA148 (antibody, human IgG1, lambda)
heavy: EVQLVQSGAEVKKPGSSVKVSCKASGYTFASYGISWVRQAPGQGLEWMGGITPFFNRVDVAEKFQGRVTITADKSTSTAYIELSSLRSEDTAVYYCARDLRRGGVGDAFDIWGRGTLVTVSSASTKGPSVFPLAPSSKSTSGGTAALGCLVKDYFPEPVTVSWNSGALTSGVHTFPAVLQSSGLYSLSSVVTVPSSSLGTQTYICNVNHKPSNTKVDKRVEPKSCDKTHTCPPCPAPELLGGPDVFLFPPKPKDTLMISRTPEVTCVVVDVSHEDPEVKFNWYVDGVEVHNAKTKPREEQYNSTYRVVSVLTVLHQDWLNGKEYKCKVSNKALPLPEEKTISKAKGQPREPQVYTLPPSREEMTKNQVSLTCLVKGFYPSDIAVEWESNGQPENNYKTTPPVLDSDGSFFLYSKLTVDKSRWQQGNVFSCSVMHEALHNHYTQKSLSLSPGK
light: QSALTQPRSVSGSPGQSVTISCTGTSPDVGSHAYRSWYQQHPGKAPKLMIYEVSYRPSGVSNRFSGSKSGNTASLTISGLQAEDEADYYCSSYPPSSATVFGAGTKLTVLGQPKAAPSVTLFPPSSEELQANKATLVCLISDFYPGAVTVAWKADSSPVKAGVETTTPSKQSNNKYAASSYLSLTPEQWKSHRSYSCQVTHEGSTVEKTVAPTEC
notes: IgG1; also called anti-TIGIT IgG1 antibody BA148

What was measured:
[1] = molecular target: T1, full-length isoform 2 ECD of cynomolgus …; assay: SPR Biacore T200, geomean of experiments #1 and #2
Experimental: Briefly, surface plasmon resonance experiments were performed using a Biacore T200 instrument, and the association rate (kₐ), dissociation rate (kd), and dissociation constant (KD) were calculated from each experiment using a 1:1 binding model with Biacore T200 Evaluation Software.
Multispecific molecules were captured using a 30-sec injection at a flow rate of 10 μl/min to reach about 350 resonance units (RUs). […] The sensor chip was regenerated between cycles with two 30-sec injections of 10 mM glycine, pH 1.5. Sensorgrams were evaluated and fit to a simple Langmuir 1:1 interaction model using the global data analysis option of BIAevaluation 3.0 software. Data quality was verified by visually inspecting deviations and curve fitting, and by evaluating the parameters of Rₘₐₓ, Chi2, and Tc.

[2] = molecular target: T2, wild type full-length cynomolgus monkey …; assay: flow cytometry on CHO cells expressing cynomolgus CD96 isoform 2, PE anti-human IgG Fc detection
[3] = molecular target: T3, wild type full-length human TIGIT …; assay: flow cytometry, human TIGIT CHO cells, geomean of 2 experiments
Experimental: The ability of anti-TIGIT antibodies to bind to wild type human TIGIT expressed on the surface of CHO cells was assessed. Briefly, CHO cells were transfected with a vector encoding wild type human TIGIT (human TIGIT-CHO), and clones stably expressing TIGIT were selected.
For the antibody binding assay, a frozen aliquot of human TIGIT-CHO cells was thawed at 37° C. and then transferred to a tube containing DPBS supplemented with 0.5% Bovine Serum Albumin and 0.05% Sodium Azide (FACS Buffer). Cells were centrifuged at 300 g for five minutes. The supernatant was discarded, and cells resuspended in FACS buffer were seeded in a 96-well U-bottom tissue culture plate at a density of […] cells per well in 50 μL. In a separate microplate, a 2× concentrated intermediate stock of each antibody was prepared. Antibodies were serially diluted 1-to-4 in FACS buffer. A total of 11 working dilutions ranging from 60 μg/mL to 0.000057 μg/mL were prepared. […] After a 30-minute incubation on ice, the cells were washed twice with cold FACS Buffer, and the cells were analyzed by flow cytometry (BD LSR Fortessa Flow Cytometer). The data were analyzed using the FlowJo software by sequentially gating the FSC-A vs. SSC-A, and SSC-H vs. SSC-A. Mean fluorescence intensity (MFI) values for PE were calculated, and the data were plotted by GraphPad Prism software.

Row | Binder | Kd [1] | EC50 (read off the curve) [2] | EC50 [3]
1 | B1 | 45.3 nM | ~1 µg/mL | 
2 | B2 |  |  | 0.0082 µg/mL
